Legend:
HeLa Kyoto [1] = assay: solubility in G1/S (NP-40 vs SDS abundance) (log2 ratio); higher = more soluble; conditions: cell cycle stage: G1/S
HeLa Kyoto [2] = assay: solubility change mitosis vs G1/S (difference of NP-40 vs SDS log2 ratios) (log2 ratio difference); higher = more soluble in mitosis
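Throughout, for solubility change mitosis vs G1/S (difference of NP-40 vs SDS log2 ratios): synchronized HeLa Kyoto cells (double thymidine block for G1/S, nocodazole release for mitosis), protein amounts in NP-40 versus SDS lysates quantified by mass spectrometry, three biological replicates.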
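Throughout, for solubility in G1/S (NP-40 vs SDS abundance): HeLa Kyoto cells arrested at G1/S by double thymidine block, proteins quantified by TMT10plex mass spectrometry in mild NP-40 versus SDS extracts, three biological replicates.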

Sequence	solubility in G1/S (log2) (HeLa Kyoto [1])	solubility change mitosis (log2) (HeLa Kyoto [2])
MSNNLRRVFLKPAEENSGNASRCVSGCMYQVVQTIGSDGKNLLQLLPIPKSSGNLIPLVQSSVMSDALKGNTGKPVQVTFQTQISSSSTSASVQLPIFQPASSSNYFLTRTVDTSEKGRVTSVGTGNFSSSVSKVQSHGVKIDGLTMQTFAVPPSTQKDSSFIVVNTQSLPVTVKSPVLPSGHHLQIPAHAEVKSVPASSLPPSVQQKILATATTSTSGMVEASQMPTVIYVSPVNTVKNVVTKNFQNIYPKPVTEIAKPVILNTTQIPKNVATETQLKGGQHSQAAPVKWIFQDNLQPFTPSLVPVKSSNNVASKILKTFVDRKNLGDNTINMPPLSTIDPSGTRSKNMPIKDNALVMFNGKVYLLAKKGTDVLPSQIDQQNSVSPDTPVRKDTLQTVSSSPVTEISREVVNIVLAKSKSSQMETKSLSNTQLASMANLRAEKNKVEKPSPSTTNPHMNQSSNYLKQSKTLFTNPIFPVGFSTGHNAPRKVTAVIYARKGSVLQSIEKISSSVDATTVTSQQCVFRDQEPKIHNEMASTSDKGAQGRNDKKDSQGRSNKALHLKSDAEFKKIFGLTKDLRVCLTRIPDHLTSGEGFDSFSSLVKSGTYKETEFMVKEGERKQQNFDKKRKAKTNKKMDHIKKRKTENAYNAIINGEANVTGSQLLSSILPTSDVSQHNILTSHSKTRQEKRTEMEYYTHEKQEKGTLNSNAAYEQSHFFNKNYTEDIFPVTPPELEETIRDEKIRRLKQVLREKEAALEEMRKKMHQK [LRIF1]	-0.92	0.89
MSRLEAKKPSLCKSEPLTTERVRTTLSVLKRIVTSCYGPSGRLKQLHNGFGGYVCTTSQSSALLSHLLVTHPILKILTASIQNHVSSFSDCGLFTAILCCNLIENVQRLGLTPTTVIRLNKHLLSLCISYLKSETCGCRIPVDFSSTQILLCLVRSILTSKPACMLTRKETEHVSALILRAFLLTIPENAEGHIILGKSLIVPLKGQRVIDSTVLPGILIEMSEVQLMRLLPIKKSTALKVALFCTTLSGDTSDTGEGTVVVSYGVSLENAVLDQLLNLGRQLISDHVDLVLCQKVIHPSLKQFLNMHRIIAIDRIGVTLMEPLTKMTGTQPIGSLGSICPNSYGSVKDVCTAKFGSKHFFHLIPNEATICSLLLCNRNDTAWDELKLTCQTALHVLQLTLKEPWALLGGGCTETHLAAYIRHKTHNDPESILKDDECTQTELQLIAEAFCSALESVVGSLEHDGGEILTDMKYGHLWSVQADSPCVANWPDLLSQCGCGLYNSQEELNWSFLRSTRRPFVPQSCLPHEAVGSASNLTLDCLTAKLSGLQVAVETANLILDLSYVIEDKN [MKKS]	-0.925	0.46
MSRSGAAAEKADSRQRPQMKVNEYKENQNIAYVSLRPAQTTVLIKTAKVYLAPFSLSNYQLDQLMCPKSLSEKNSNNEVACKKTKIKKTCRRIIPPKMKNTSSKAESTLQNSSSAVHTESNKLQPKRTADAMNLSVDVESSQDGDSDEDTTPSLDFSGLSPYERKRLKNISENADFFASLQLSESAARLREMIEKRQPPKSKRKKPKRENGIGCRRSMRLLKVDPSGVSLPAAPTPPTLVADETPLLPPGPLEMTSENQEDNNERFKGFLHTWAGMSKPSSKNTEKGLSSIKSYKANLNGMVISEDTVYKVTTGPIFSMALHPSETRTLVAVGAKFGQVGLCDLTQQPKEDGVYVFHPHSQPVSCLYFSPANPAHILSLSYDGTLRCGDFSRAIFEEVYRNERSSFSSFDFLAEDASTLIVGHWDGNMSLVDRRTPGTSYEKLTSSSMGKIRTVHVHPVHRQYFITAGLRDTHIYDARRLNSRRSQPLISLTEHTKSIASAYFSPLTGNRVVTTCADCNLRIFDSSCISSKIPLLTTIRHNTFTGRWLTRFQAMWDPKQEDCVIVGSMAHPRRVEIFHETGKRVHSFGGEYLVSVCSINAMHPTRYILAGGNSSGKIHVFMNEKSC [WDR76]	-1.61	1.15
MSSKMVISEPGLNWDISPKNGLKTFFSRENYKDHSMAPSLKELRVLSNRRIGENLNASASSVENEPAVSSATQAKEKVKTTIGMVLLPKPRVPYPRFSRFSQREQRSYVDLLVKYAKIPANSKAVGINKNDYLQYLDMKKHVNEEVTEFLKFLQNSAKKCAQDYNMLSDDARLFTEKILRACIEQVKKYSEFYTLHEVTSLMGFFPFRVEMGLKLEKTLLALGSVKYVKTVFPSMPIKLQLSKDDIATIETSEQTAEAMHYDISKDPNAEKLVSRYHPQIALTSQSLFTLLNNHGPTYKEQWEIPVCIQVIPVAGSKPVKVIYINSPLPQKKMTMRERNQIFHEVPLKFMMSKNTSVPVSAVFMDKPEEFISEMDMSCEVNECRKIESLENLYLDFDDDVTELETFGVTTTKVSKSPSPASTSTVPNMTDAPTAPKAGTTTVAPSAPDISANSRSLSQILMEQLQKEKQLVTGMDGGPEECKNKDDQGFESCEKVSNSDKPLIQDSDLKTSDALQLENSQEIETSNKNDMTIDILHADGERPNVLENLDNSKEKTVGSEAAKTEDTVLCSSDTDEECLIIDTECKNNSDGKTAVVGSNLSSRPASPNSSSGQASVGNQTNTACSPEESCVLKKPIKRVYKKFDPVGEILKMQDELLKPISRKVPELPLMNLENSKQPSVSEQLSGPSDSSSWPKSGWPSAFQKPKGRLPYELQDYVEDTSEYLAPQEGNFVYKLFSLQDLLLLVRCSVQRIETRPRSKKRKKIRRQFPVYVLPKVEYQACYGVEALTESELCRLWTESLLHSNSSFYVGHIDAFTSKLFLLEEITSEELKEKLSALKISNLFNILQHILKKLSSLQEGSYLLSHAAEDSSLLIYKASDGKVTRTAYNLYKTHCGLPGVPSSLSVPWVPLDPSLLLPYHIHHGRIPCTFPPKSLDTTTQQKIGGTRMPTRSHRNPVSMETKSSCLPAQQVETEGVAPHKRKIT [ICE2]	-0.234	0.281
MSSLPRRAKVQVQDVVLKDEFSSFSELSSASEEDDKEDSAWEPQKKVPRSRKQPPPKESKPKRMPRVKKNAPQISDGSEVVVVKEELNSSVAIADTALEDRKNKLDTVQTLKTAKTKQKCAAQPHTVRRTKKLKVEEETSKASNLEGESNSSETPSTSTVWGGTCKKEENDDDFTFGQSALKKIKTETYPQGQPVKFPANANSTKEEVEMNWDMVQVLSERTNIEPWVCANIIRLFNDDNTIPFIIRYRKELINNLDADSLREVQQTLEELRAVAKKVHSTIQKIKKEGKMSECLLKAMLNCKTFEELEHVSAPYKTGSKGTKAQRARQLGLEGAARALLEKPGELSLLSYIRPDVKGLSTLQDIEIGVQHILADMIAKDKDTLDFIRNLCQKRHVCIQSSLAKVSSKKVNEKDVDKFLLYQHFSCNIRNIHHHQILAINRGENLKVLTVKVNISDGVKDEFCRWCIQNRWRPRSFARPELMKILYNSLNDSFKRLIYPLLCREFRAKLTSDAEKESVMMFGRNLRQLLLTSPVPGRTLMGVDPGYKHGCKLAIISPTSQILHTDVVYLHCGQGFREAEKIKTLLLNFNCSTVVIGNGTACRETEAYFADLIMKNYFAPLDVVYCIVSEAGASIYSVSPEANKEMPGLDPNLRSAVSIARRVQDPLAELVKIEPKHIGVGMYQHDVSQTLLKATLDSVVEECVSFVGVDINICSEVLLRHIAGLNANRAKNIIEWREKNGPFINREQLKKVKGLGPKSFQQCAGFIRINQDYIRTFCSQQTETSGQIQGVAVTSSADVEVTNEKQGKKKSKTAVNVLLKPNPLDQTCIHPESYDIAMRFLSSIGGTLYEVGKPEMQQKINSFLEKEGMEKIAERLQTTVHTLQVIIDGLSQPESFDFRTDFDKPDFKRSIVCLEDLQIGTVLTGKVENATLFGIFVDIGVGKSGLIPIRNVTEAKLSKTKKRRSLGLGPGERVEVQVLNIDIPRSRITLDLIRVL [SRBD1]	-0.649	0.249
MSTEADEGITFSVPPFAPSGFCTIPEGGICRRGGAAAVGEGEEHQLPPPPPGSFWNVESAAAPGIGCPAATSSSSATRGRGSSVGGGSRRTTVAYVINEASQGQLVVAESEALQSLREACETVGATLETLHFGKLDFGETTVLDRFYNADIAVVEMSDAFRQPSLFYHLGVRESFSMANNIILYCDTNSDSLQSLKEIICQKNTMCTGNYTFVPYMITPHNKVYCCDSSFMKGLTELMQPNFELLLGPICLPLVDRFIQLLKVAQASSSQYFRESILNDIRKARNLYTGKELAAELARIRQRVDNIEVLTADIVINLLLSYRDIQDYDSIVKLVETLEKLPTFDLASHHHVKFHYAFALNRRNLPGDRAKALDIMIPMVQSEGQVASDMYCLVGRIYKDMFLDSNFTDTESRDHGASWFKKAFESEPTLQSGINYAVLLLAAGHQFESSFELRKVGVKLSSLLGKKGNLEKLQSYWEVGFFLGASVLANDHMRVIQASEKLFKLKTPAWYLKSIVETILIYKHFVKLTTEQPVAKQELVDFWMDFLVEATKTDVTVVRFPVLILEPTKIYQPSYLSINNEVEEKTISIWHVLPDDKKGIHEWNFSASSVRGVSISKFEERCCFLYVLHNSDDFQIYFCTELHCKKFFEMVNTITEEKGRSTEEGDCESDLLEYDYEYDENGDRVVLGKGTYGIVYAGRDLSNQVRIAIKEIPERDSRYSQPLHEEIALHKHLKHKNIVQYLGSFSENGFIKIFMEQVPGGSLSALLRSKWGPLKDNEQTIGFYTKQILEGLKYLHDNQIVHRDIKGDNVLINTYSGVLKISDFGTSKRLAGINPCTETFTGTLQYMAPEIIDKGPRGYGKAADIWSLGCTIIEMATGKPPFYELGEPQAAMFKVGMFKVHPEIPESMSAEAKAFILKCFEPDPDKRACANDLLVDEFLKVSSKKKKTQPKLSALSAGSNEYLRSISLPVPVLVEDTSSSSEYGSVSPDTELKVDPFSFKTRAKSCGERDVKGIRTLFLGIPDENFEDHSAPPSPEEKDSGFFMLRKDSERRATLHRILTEDQDKIVRNLMESLAQGAEEPKLKWEHITTLIASLREFVRSTDRKIIATTLSKLKLELDFDSHGISQVQVVLFGFQDAVNKVLRNHNIKPHWMFALDSIIRKAVQTAITILVPELRPHFSLASESDTADQEDLDVEDDHEEQPSNQTVRRPQAVIEDAVATSGVSTLSSTVSHDSQSAHRSLNVQLGRMKIETNRLLEELVRKEKELQALLHRAIEEKDQEIKHLKLKSQPIEIPELPVFHLNSSGTNTEDSELTDWLRVNGADEDTISRFLAEDYTLLDVLYYVTRDDLKCLRLRGGMLCTLWKAIIDFRNKQT [MAP3K5]	-1.04	0.654
MSVSARSAAAEERSVNSSTMVAQQKNLEGYVGFANLPNQVYRKSVKRGFEFTLMVVGESGLGKSTLINSLFLTDLYSPEYPGPSHRIKKTVQVEQSKVLIKEGGVQLLLTIVDTPGFGDAVDNSNCWQPVIDYIDSKFEDYLNAESRVNRRQMPDNRVQCCLYFIAPSGHGLKPLDIEFMKRLHEKVNIIPLIAKADTLTPEECQQFKKQIMKEIQEHKIKIYEFPETDDEEENKLVKKIKDRLPLAVVGSNTIIEVNGKRVRGRQYPWGVAEVENGEHCDFTILRNMLIRTHMQDLKDVTNNVHYENYRSRKLAAVTYNGVDNNKNKGQLTKSPLAQMEEERREHVAKMKKMEMEMEQVFEMKVKEKVQKLKDSEAELQRRHEQMKKNLEAQHKELEEKRRQFEDEKANWEAQQRILEQQNSSRTLEKNKKKGKIF [SEPT7]	0.245	0.00373
MSWLFPLTKSASSSAAGSPGGLTSLQQQKQRLIESLRNSHSSIAEIQKDVEYRLPFTINNLTININILLPPQFPQEKPVISVYPPIRHHLMDKQGVYVTSPLVNNFTMHSDLGKIIQSLLDEFWKNPPVLAPTSTAFPYLYSNPSGMSPYASQGFPFLPPYPPQEANRSITSLSVADTVSSSTTSHTTAKPAAPSFGVLSNLPLPIPTVDASIPTSQNGFGYKMPDVPDAFPELSELSVSQLTDMNEQEEVLLEQFLTLPQLKQIITDKDDLVKSIEELARKNLLLEPSLEAKRQTVLDKYELLTQMKSTFEKKMQRQHELSESCSASALQARLKVAAHEAEEESDNIAEDFLEGKMEIDDFLSSFMEKRTICHCRRAKEEKLQQAIAMHSQFHAPL [VPS37A]	0.656	-0.0301

Reference: the supplement of paper PMC5998384
